167 variants from the RNAGym collection of RNA variant scans (doi:10.7554/elife.80360) can be followed below.

To fix the notation:
B1: HDV Ribozyme (parent)
chain: GGCCGGCAUGGUCCCAGCCUCCUCGCUGGCGCCGGCUGGGCAACAUUCCGAGGGGACCGUCCCCUCGGUAAUGGCGAAUGGGACCCA

Variants of B1 are the subject of this data set. The data set can be described thus: self-cleavage, relative activity (ratio to wild type); higher = more cleavage; co-transcriptional.
As for U9C A16U, the self-cleavage was 1.08.
With U9C A16C the figure was 0.519; with U20G, 0.205; with G34A U69A, 0.166.
To C22U G68U belongs 0.572.
To G25U C44G belongs 0.249; to C58A G80C, 0.0707.
As to G67C A71C, the self-cleavage is 0.657.
Take G68U G82U: the self-cleavage stood at 0.265.
With A42U C61U, the self-cleavage was 0.445.
To A8C A78U belongs 0.119; to C18A G74C, 0.0791.
With C18U C44G the figure was 0.142; with A56G A77G, 1.11; with A8C G29C, 0.
Take G38U C57G: the self-cleavage turned out to be 0.38.
As to C58A G59A, the self-cleavage stood at 1.1.
Consider C13A U60A, for which the self-cleavage amounted to 0.214.
With C19A G74C the figure was 0.125; with A56U G81A, 0.492.
With C48U C61G the figure was 0.855; with G1U G76U, 0.359.
To C33A G52A belongs 0.229; to A8U G82C, 0.0923.
In the case of C14U G68A, the self-cleavage came to 0.95.
With C57A A83G the figure was 0.688; with C36G G40U, 0.108.
For the variant C26A C85G, the self-cleavage amounted to 1.15.
To G25A U47C belongs 0.107; to C3G C62G, 0.169.
To C33G A71C belongs 0.104; to U46G C57U, 0.86.
With G31U C63U the figure was 0.41; with C48U A77C, 0.57.
Take C22A A45U: the self-cleavage was found to be 0.233.
To C7A G39C belongs 0.
In the case of U60A C63A, the self-cleavage is 0.849.
With C64G G80C the figure was 0.305; with C21U G35C, 0.233; with C19G A51C, 0.0369.
With G29U C36G the figure was 0.201; with G1U C44G, 0.271; with A56U G74A, 0.681.
To U23C G76C belongs 1.05; to G11A C44G, 0.
On to U46A G67C, for which the self-cleavage is 0.76.
To C64G G68A belongs 0.338.
To C15G C26A belongs 0.332.
To G2A A71G belongs 0.241.
In the case of G28U C36G, the self-cleavage came to 0.0665.
With C22A G55A the figure was 0.284; with U12A C24U, 0.135; with C3G G73A, 0.211.
Regarding C13U C24G, the self-cleavage is 0.0615.
For G25A A78C, the self-cleavage turned out to be 0.0302.
C13U G67C: the self-cleavage turned out to be 0.374.
To U9G U27C belongs 0.68; to C36A A45G, 0.256.
To C7U C61A belongs 0.87; to U27G G54U, 0.997; to C21A C63U, 0.0462.
To U60G A77U belongs 0.237.
Regarding C21G G52C, the self-cleavage came to 0.111.
With G81U A87G the figure was 0.291; with C49A A56C, 1.05.
With G17U G39U the figure was 0.126.
To U65G A77C belongs 0.356; to C14U U27C, 0.723; to C26G C63G, 0.653.
As for C49G G80U, the self-cleavage is 0.123.
On to G35C G81A, for which the self-cleavage amounted to 0.0332.
For the variant U23A C32A, the self-cleavage was 0.251.
To G28C G59A belongs 0.185.
With C48U G53A the figure was 0.888.
To U60C G76A belongs 1.05; to G25U G39C, 0.0773; to U46A G68A, 0.65.
Regarding G5A G39C, the self-cleavage was determined as 0.119.
With C4U G29U the figure was 0.0302; with U37C U79A, 0.554.
With G50U C62A the figure was 0.602; with U23A A42G, 0.499.
C18A A43G: the self-cleavage came to 0.192.
To U46G belongs 0.793.
With G55C U79A the figure was 0.527; with C19G C21G, 0.0326; with C19G C21A, 0.208.
To U60C G74U belongs 0.348; to G6C G81A, 0.0811.
Consider G17U G73A, for which the self-cleavage came to 0.233.
Consider G2A G76A, for which the self-cleavage came to 0.0391.
To G10U G52U belongs 0.891; to G53C C75U, 0.131.
With U47G A77U the figure was 0.665.
To U27C G50C belongs 0.858; to C24U C30G, 0.122; to C7G A56G, 0.208.
Turning to G2C U27C, the self-cleavage was 0.0496.
To G1A G35U belongs 0.158; to G28A U60C, 0.0811.
As to C63A A77U, the self-cleavage came out at 0.356.
With G40C A43C the figure was 0.123.
With U9C G28U the figure was 0.123; with C14U A45C, 0.646.
With U23C C62U the figure was 1.03.
As for C49A C75G, the self-cleavage is 0.128.
To C32A C63G belongs 0.095; to C63U C64U, 1.08.
With C4U G55A the figure was 0.772; with U27C C63A, 0.883.
Regarding U37G U79G, the self-cleavage turned out to be 0.115.
With C15A G55C the figure was 0.482; with A42U G52C, 0.799; with C4G G29C, 0.
To C26U U60C belongs 0.95; to G34U G35A, 0.204; to C58A A77U, 0.78.
Take G28U A42U: the self-cleavage was found to be 0.138.
To G1A G76A belongs 0.462; to C41U G81C, 0.168; to G31A C84U, 0.337.
To G10U A78G belongs 0.449.
With G54C G81A the figure was 0.393; with C18G U46A, 0.145; with A45U U47A, 0.973.
Turning to U37A A56G, the self-cleavage is 0.107.
To U12C C85A belongs 0.185; to G34A A45C, 0.299; to G28A A77U, 0.104.
With C14U C21A the figure was 0; with U27G G50A, 0.923; with G11C G35C, 0.151.
To G67A G76C belongs 0.926; to G1C G5C, 0; to G74A G81C, 0.218.
On to G2A C32G, for which the self-cleavage was found to be 0.0441.
To A51U G53C belongs 0.776.
On to G11C U20A, for which the self-cleavage was 0.0978.
On to G29A G55U, for which the self-cleavage worked out at 0.168.
G31A A43C: the self-cleavage was determined as 0.106.
With U27C A51C the figure was 0.858; with U72C C85G, 0.453.
With A42U G59U the figure was 0.595; with A43C G52U, 0.402.
With C24U C62U the figure was 0.763; with A42C A87G, 0.219.
With C48G G67U, the self-cleavage was determined as 0.972.
To C44A C63G belongs 0.831; to A42C G50C, 0.375.
To G17U G59C belongs 0.432; to G40A G59C, 0.831; to U46A A87U, 0.76.
Regarding U9G A16G, the self-cleavage was 1.42.
To C15A U23C belongs 0.748.
With C26A G38A the figure was 0.153; with G2C G39U, 0.0246; with U9G U46G, 0.646.
With C3U A87U the figure was 0.725; with C13A U47A, 0.148.
On to U46A C62U, for which the self-cleavage was 0.712.
Turning to G10A U47A, the self-cleavage stood at 0.665.
With C30G A70C the figure was 0.106; with A16G G52U, 1.07; with G34C C64G, 0.306.
With G17C C18U the figure was 0.0923; with U9A G39A, 0.665; with G74U A87G, 0.473.
